According to ChEMBL document CHEMBL1208712, “Synthesis and anti-HCV activity of 3',4'-oxetane nucleosides” (Bioorg Med Chem Lett, 2010):
Each block holds one compound with its values, some of them ahead of it. Active and inactive are the calls of the source. The rule behind the calls is not given here.

Legend:
[1] = target: T1, UMP-CMP kinase (Homo sapiens) (UniProt P30085); assay: Activity at human recombinant UMP-CMP kinase
T1 sequence (whole entry): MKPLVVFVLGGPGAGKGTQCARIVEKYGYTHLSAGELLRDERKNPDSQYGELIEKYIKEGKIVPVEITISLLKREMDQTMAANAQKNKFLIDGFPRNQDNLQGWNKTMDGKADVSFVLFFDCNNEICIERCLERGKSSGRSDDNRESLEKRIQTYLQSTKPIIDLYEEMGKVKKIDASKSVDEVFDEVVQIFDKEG

[2] = test system: Nc1ccn([C@@H]2O[C@@]3(CO)CO[C@H]3C2(F)F)c(=O)n1; assay: (§1) Activity at human recombinant deoxycytidine kinase expressed in HepG2 cells; format: cell-based
[3] = test system: Nc1ccn([C@@H]2O[C@@]3(CO)CO[C@H]3[C@@H]2F)c(=O)n1; assay: as §1; format: cell-based
[4] = test system: Nc1ccn([C@@H]2O[C@@]3(CO)CO[C@H]3[C@H]2F)c(=O)n1; assay: as §1; format: cell-based
[5] = test system: Nc1ccn([C@@H]2O[C@@]3(CO)CO[C@H]3C2(F)F)c(=O)n1; assay: (§2) Ratio of Kcat/Km for human recombinant deoxycytidine kinase
[6] = test system: Nc1ccn([C@@H]2O[C@@]3(CO)CO[C@H]3[C@@H]2F)c(=O)n1; assay: as §2
[7] = test system: Nc1ccn([C@@H]2O[C@@]3(CO)CO[C@H]3[C@H]2F)c(=O)n1; assay: as §2

Sequence of Deoxycytidine kinase (Homo sapiens), P27707 (P27707 whole entry): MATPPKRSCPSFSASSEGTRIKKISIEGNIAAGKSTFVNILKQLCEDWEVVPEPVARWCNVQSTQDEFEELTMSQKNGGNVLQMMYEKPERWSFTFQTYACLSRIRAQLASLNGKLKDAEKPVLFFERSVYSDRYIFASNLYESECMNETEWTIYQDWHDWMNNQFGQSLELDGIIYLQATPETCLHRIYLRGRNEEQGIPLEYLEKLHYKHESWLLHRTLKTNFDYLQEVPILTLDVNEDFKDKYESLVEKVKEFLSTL

Activity [1]: inactive
Compound: Nc1ccn([C@@H]2O[C@@]3(CO)CO[C@H]3C2(F)F)c(=O)n1

Activity [1]: inactive
Compound: Nc1ccn([C@@H]2O[C@@]3(CO)CO[C@H]3[C@@H]2F)c(=O)n1

Activity [1]: inactive
Compound: Nc1ccn([C@@H]2O[C@@]3(CO)CO[C@H]3[C@H]2F)c(=O)n1

Compound: Deoxycytidine kinase (Homo sapiens), P27707
Km [2]: 27.6 µM | kcat [2]: 0.0599 s⁻¹ | Km [3]: 81.1 µM | kcat [3]: 0.122 s⁻¹ | Km [4]: 61 µM | kcat [4]: 0.0214 s⁻¹ | kcat/Km (10'-3/microM/s) [5]: 2.2 | kcat/Km (10'-3/microM/s) [6]: 1.5 | kcat/Km [7]: 3.5 ×10⁻⁴ /µM/s
